Data taken from US20140274782A1, “AFFINITY REAGENTS AND METHODS FOR DETECTION, PURIFICATION, AND PROTEOMIC ANALYSIS OF METHYLATED PROTEINS” (The Board of Trustees of the Leland Stanford Junior …, priority 2013, published 2014).

T1: G9a and GLP (Homo sapiens, UniProt Q96KQ7+Q9H9B1)
T1 sequence (Q96KQ7 2-1210 limits assumed): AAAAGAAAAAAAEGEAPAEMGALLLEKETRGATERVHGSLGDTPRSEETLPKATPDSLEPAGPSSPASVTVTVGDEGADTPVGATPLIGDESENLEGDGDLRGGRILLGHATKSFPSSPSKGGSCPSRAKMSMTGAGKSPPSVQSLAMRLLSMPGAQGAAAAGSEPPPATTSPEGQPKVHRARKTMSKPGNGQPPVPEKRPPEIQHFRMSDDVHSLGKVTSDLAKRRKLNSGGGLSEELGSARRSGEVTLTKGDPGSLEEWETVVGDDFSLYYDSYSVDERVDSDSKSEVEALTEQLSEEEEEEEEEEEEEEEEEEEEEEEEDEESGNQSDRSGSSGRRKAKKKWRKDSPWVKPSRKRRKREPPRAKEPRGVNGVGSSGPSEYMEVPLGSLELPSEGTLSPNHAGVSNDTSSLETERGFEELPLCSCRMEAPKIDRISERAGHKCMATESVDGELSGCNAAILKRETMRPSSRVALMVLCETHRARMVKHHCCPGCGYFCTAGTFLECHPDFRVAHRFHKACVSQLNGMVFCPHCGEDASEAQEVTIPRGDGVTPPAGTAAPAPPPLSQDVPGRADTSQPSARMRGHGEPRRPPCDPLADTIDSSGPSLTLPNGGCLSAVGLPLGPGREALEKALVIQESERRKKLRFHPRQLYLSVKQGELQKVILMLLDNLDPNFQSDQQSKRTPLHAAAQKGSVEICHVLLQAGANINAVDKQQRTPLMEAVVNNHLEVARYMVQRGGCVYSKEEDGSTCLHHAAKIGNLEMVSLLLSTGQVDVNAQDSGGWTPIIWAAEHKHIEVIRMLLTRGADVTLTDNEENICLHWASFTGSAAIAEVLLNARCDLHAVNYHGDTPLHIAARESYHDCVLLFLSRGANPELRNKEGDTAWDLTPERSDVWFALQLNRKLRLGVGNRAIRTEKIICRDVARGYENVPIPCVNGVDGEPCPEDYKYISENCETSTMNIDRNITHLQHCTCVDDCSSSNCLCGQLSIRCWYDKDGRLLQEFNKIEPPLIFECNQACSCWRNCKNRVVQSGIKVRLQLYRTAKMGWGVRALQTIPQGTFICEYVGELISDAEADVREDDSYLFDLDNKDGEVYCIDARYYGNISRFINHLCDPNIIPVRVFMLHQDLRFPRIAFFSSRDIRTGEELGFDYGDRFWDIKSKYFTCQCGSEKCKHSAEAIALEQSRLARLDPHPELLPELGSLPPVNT
T1 sequence (Q9H9B1 2-1298 limits assumed): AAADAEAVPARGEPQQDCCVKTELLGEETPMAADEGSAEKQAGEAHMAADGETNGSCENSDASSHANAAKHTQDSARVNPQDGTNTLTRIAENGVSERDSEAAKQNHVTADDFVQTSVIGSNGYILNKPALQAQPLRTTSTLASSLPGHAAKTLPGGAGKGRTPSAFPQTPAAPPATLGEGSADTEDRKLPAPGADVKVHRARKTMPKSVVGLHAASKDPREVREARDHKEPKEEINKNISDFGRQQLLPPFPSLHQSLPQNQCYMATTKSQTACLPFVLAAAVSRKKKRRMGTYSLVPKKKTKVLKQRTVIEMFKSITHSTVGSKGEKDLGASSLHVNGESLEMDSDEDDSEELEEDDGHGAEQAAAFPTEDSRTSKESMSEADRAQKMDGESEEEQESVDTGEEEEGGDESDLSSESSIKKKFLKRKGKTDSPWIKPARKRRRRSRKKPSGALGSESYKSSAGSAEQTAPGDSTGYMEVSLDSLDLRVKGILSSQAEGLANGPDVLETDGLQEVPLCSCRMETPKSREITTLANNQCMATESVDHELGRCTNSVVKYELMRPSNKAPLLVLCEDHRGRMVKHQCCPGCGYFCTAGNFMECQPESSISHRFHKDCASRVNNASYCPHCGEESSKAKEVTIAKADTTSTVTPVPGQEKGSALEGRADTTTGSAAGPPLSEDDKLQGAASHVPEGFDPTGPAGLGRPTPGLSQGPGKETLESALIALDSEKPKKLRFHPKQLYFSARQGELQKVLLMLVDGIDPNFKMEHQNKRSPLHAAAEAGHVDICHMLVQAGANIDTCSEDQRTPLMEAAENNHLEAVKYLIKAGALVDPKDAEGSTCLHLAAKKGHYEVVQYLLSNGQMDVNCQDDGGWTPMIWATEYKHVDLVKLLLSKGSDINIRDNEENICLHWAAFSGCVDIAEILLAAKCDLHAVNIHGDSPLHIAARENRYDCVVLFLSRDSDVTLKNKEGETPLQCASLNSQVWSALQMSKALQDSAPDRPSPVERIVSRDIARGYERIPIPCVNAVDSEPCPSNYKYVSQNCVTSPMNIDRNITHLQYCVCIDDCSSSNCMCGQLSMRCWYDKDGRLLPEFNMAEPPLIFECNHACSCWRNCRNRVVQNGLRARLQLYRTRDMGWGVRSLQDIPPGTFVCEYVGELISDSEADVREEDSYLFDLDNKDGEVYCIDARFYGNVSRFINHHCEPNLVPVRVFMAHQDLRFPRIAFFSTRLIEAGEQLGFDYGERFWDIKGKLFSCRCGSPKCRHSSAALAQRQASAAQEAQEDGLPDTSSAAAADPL


Assays:
3×MBT domain of L3MBTL1 = experiment: Triple SILAC pull-down, 3xMBT/3xMBTD355N ratio (cytoplasmic, nuclear and chromatin fractions of 293T cells); format: binding, human; details: for 3xMBT/D355N UNC Heavy: experiment with UNC0638 in heavy SILAC media; for 3xMBT/D355N UNC Light: experiment with UNC0638 in light SILAC media;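 for all read-outs here: proteins quantified with MaxQuant, requiring at least two unique peptides and quantification in both label directions, normalized to the mean of proteins from a digested loading control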
G9a and GLP = biological target: T1, G9a and GLP; experiment: Triple SILAC pull-down after UNC0638 treatment of 293T cells, DMSO/UNC0638 ratio of protein captured by 3×MBT; format: cell-based; design: endogenous in cells; host or cells: HEK 293T; details: for Relative to UNC0638 UNC Light: UNC0638 in light SILAC media; for Relative to UNC0638 Average: average of UNC Light and UNC Heavy experiments; for Relative to UNC0638 UNC Heavy: UNC0638 in heavy SILAC media;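 for all read-outs here: mass spectrometry (Q-Exactive) SILAC quantitation, DMSO/UNC0638 ratio computed after subtracting 3×MBTD355N mutant pull-down background, only proteins with at least twofold 3×MBT over mutant signal considered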
[1] = SILAC ratio 3xMBT vs 3xMBTD355N pull-down, 293T cells, all values in log base 2
[2] = SILAC ratio, pull-down 3xMBT vs 3xMBTD355N
[3] = SILAC ratio DMSO/UNC0638 of protein pulled down with 3xMBT

Molecule | 3xMBT/D355N UNC Heavy (3×MBT domain of L3MBTL1; [1]) [log base 2] | 3xMBT/D355N UNC Light (3×MBT domain of L3MBTL1; [1]) [log base 2] | Relative to UNC0638 UNC Light (G9a and GLP; SILAC ratio DMSO relative to UNC0638, pull-down with 3xMBT, all values in log base 2) [log base 2] | Relative to UNC0638 Average (G9a and GLP; all values in log base 2) [log base 2] | 3xMBT/D355N UNC Heavy (3×MBT domain of L3MBTL1; [2]) [log base 2] | 3xMBT/D355N UNC Light (3×MBT domain of L3MBTL1; [2]) [log base 2] | Relative to UNC0638 UNC Heavy (G9a and GLP; [3]) [log base 2] | Relative to UNC0638 UNC Light (G9a and GLP; [3]) [log base 2] | Relative to UNC0638 Average (G9a and GLP) [log base 2] | Candidate G9a/GLP target (G9a and GLP; reduced association with 3xMBT after UNC0638 treatment)
CHEK1 (protein, UniProt O14757 1-476, looked up) Serine/threonine-protein …: MAVPFVEDWDLVQTLGEGAYGEVQLAVNRVTEEAVAVKIVDMKRAVDCPENIKKEICINKMLNHENVVKFYGHRREGNIQYLFLEYCSGGELFDRIEPDIGMPEPDAQRFFHQLMAGVVYLHGIGITHRDIKPENLLLDERDNLKISDFGLATVFRYNNRERLLNKMCGTLPYVAPELLKRREFHAEPVDVWSCGIVLTAMLAGELPWDQPSDSCQEYSDWKEKKTYLNPWKKIDSAPLALLHKILVENPSARITIPDIKKDRWYNKPLKKGAKRPRVTSGGVSESPSGFSKHIQSNLDFSPVNSASSEENVKYSSSQPEPRTGLSLWDTSPSYIDKLVQGISFSQPTCPDHMLLNSQLLGTPGSSQNPWQRLVKRMTRFFTKLDADKSYQCLKETCEKLGYQWKKSCMNQVTISTTDRRNNKLIFKVNLLEMDDKILVDFRLSKGDGLEFKRHFLKIKGKLIDIVSSQKIWLPAT | 0.09 | 0.46 | −0.99 | −0.99 | – | – | – | – | – | –
WDR70 (protein, UniProt Q9NW82 1-654, looked up) WD repeat-containing protein …: MERSGPSEVTGSDASGPDPQLAVTMGFTGFGKKARTFDLEAMFEQTRRTAVERSRKTLEAREKEEEMNREKELRRQNEDIEPTSSRSNVVRDCSKSSSRDTSSSESEQSSDSSDDELIGPPLPPKMVGKPVNFMEEDILGPLPPPLNEEEEEAEEEEEEEEEEENPVHKIPDSHEITLKHGTKTVSALGLDPSGARLVTGGYDYDVKFWDFAGMDASFKAFRSLQPCECHQIKSLQYSNTGDMILVVSGSSQAKVIDRDGFEVMECIKGDQYIVDMANTKGHTAMLHTGSWHPKIKGEFMTCSNDATVRTWEVENPKKQKSVFKPRTMQGKKVIPTTCTYSRDGNLIAAACQNGSIQIWDRNLTVHPKFHYKQAHDSGTDTSCVTFSYDGNVLASRGGDDSLKLWDIRQFNKPLFSASGLPTMFPMTDCCFSPDDKLIVTGTSIQRGCGSGKLVFFERRTFQRVYEIDITDASVVRCLWHPKLNQIMVGTGNGLAKVYYDPNKSQRGAKLCVVKTQRKAKQAETLTQDYIITPHALPMFREPRQRSTRKQLEKDRLDPLKSHKPEPPVAGPGRGGRVGTHGGTLSSYIVKNIALDKTDDSNPREAILRHAKAAEDSPYWVSPAYSKTQPKTMFAQVESDDEEAKNEPEWKKRKI | – | – | – | – | 2.21 | 2.93 | 0.94 | −0.18 | 0.38 | –
HNRNPL (protein, UniProt P14866 1-589, looked up) Heterogeneous nuclear …: MSRRLLPRAEKRRRRLEQRQQPDEQRRRSGAMVKMAAAGGGGGGGRYYGGGSEGGRAPKRLKTDNAGDQHGGGGGGGGGAGAAGGGGGGENYDDPHKTPASPVVHIRGLIDGVVEADLVEALQEFGPISYVVVMPKKRQALVEFEDVLGACNAVNYAADNQIYIAGHPAFVNYSTSQKISRPGDSDDSRSVNSVLLFTILNPIYSITTDVLYTICNPCGPVQRIVIFRKNGVQAMVEFDSVQSAQRAKASLNGADIYSGCCTLKIEYAKPTRLNVFKNDQDTWDYTNPNLSGQGDPGSNPNKRQRQPPLLGDHPAEYGGPHGGYHSHYHDEGYGPPPPHYEGRRMGPPVGGHRRGPSRYGPQYGHPPPPPPPPEYGPHADSPVLMVYGLDQSKMNCDRVFNVFCLYGNVEKVKFMKSKPGAAMVEMADGYAVDRAITHLNNNFMFGQKLNVCVSKQPAIMPGQSYGLEDGSCSYKDFSESRNNRFSTPEQAAKNRIQHPSNVLHFFNAPLEVTEENFFEICDELGVKRPSSVKVFSGKSERSSSGLLEWESKSDALETLGFLNHYQMKNPNGPYPYTLKLCFSTAQHAS | – | – | – | – | 1.15 | 1.40 | 0.36 | 0.41 | 0.38 | ✓
